We go through 14 molecules from US20250381223A1 (UTC THERAPEUTICS SHANGHAI, published 2025).

B1: anti-CD123 scFv-C1 (scFv)
scFv: QSALTQPASVSGSPGQSITISCTGTSSDIGAYNYVSWYQQHPGKAPKLIIYDVSHRPSGVSNRFSGSKSGNTASLTISGLQSEDEADYYCSSDTNNNTLVFGVGTKLTVLGGGGSGGGGSGGGGSEVHLVESGGGVVQPGRSLRLSCAASGFTFSSYGMHWVRQAPGKGLEWVAVIWYDGSNKYYADSVKGRFTISRDNSKNTLYLQMNSLRAEDTAVYYCARDRDGFFLPMYYFDYWGQGTLVTVSS
notes: On mRNA-electroporated T cells as CAR (hinge to CD3-zeta)
B2: anti-CD123 scFv-C9 (scFv)
scFv: QSVLTQPPSASGTPGQRVTISCSGSNSNIENNYVYWYQHLPGTAPKRLIYQNNQRPSGVPDRFSGSKSGTSASLAISGLRSEDEADYYCSAWDDSLSAWVFGGGTELTVLGGGGSGGGGSGGGGSEVHLVESGGGLVQPGRSLRLSCTASGFTFGDYAMNWVRQAPGKGLEWVGFIRSKASGGTTDYAASVKGRFTISRDDSKSIAYLQMNSLKTEDTAVYYCTRALRGYSYGLFDYWGQGTLVTVSS
notes: On mRNA-electroporated T cells as CAR
B3: anti-CD123 scFv-C15 (scFv)
scFv: DIQLTQSPSTLSASVGDRVTISCRASQSISSWLAWYQHKPGKAPKLLIYKTSALEDGVPSRFSGSGSGTEFTLTISSLQPDDFATYFCLHYGSYTFGQGTKVDIKGGGGSGGGGSGGGGSEVQLVESGGGLVNPGGSLRLSCEASGFTFSDYYISWIRQAPGKGLEWISYISGSSTYTDFADSVKGRFTISRDNAKNTVFLQMNSLRAEDTAVYYCARDRRGRFDPWGQGTLVTVSS
notes: as for B2
B4: anti-CD123 scFv-C6 (scFv)
scFv: SYELTQPPSVSVSPGQTARIPCSGADLGDQYVSWYQHQPGQSPLLVIYEDDKRPSGIPERFSGSNSGNTATLTISGTQAMDEADYYCQAWDGNAAIFGGGTKLTVLGGGGSGGGGSGGGGSQVQLVQSGGGSVQPGGSLRLSCAASGFTFTRYSMNWVRQAPGKGLEWVSYISSSSSTIYYADSVKGRFTISRDNAKNSLYLQMNSLRDEDTAVYYCARDGYGGNSDYYGMDVWGQGTTVTVSS
notes: as for B2
B5: anti-CD123 scFv-C5 (scFv)
scFv: NFMLTQPHSVSESPGKTVTLSCTRSSGSIAGSYVQWYQQRPGSSPTTVIFQDNQRPSGVPDRFSGSIDKSSNSASLTISGLKTEDEADYYCQSYDSNNQVFGGGTKLTVLGGGGSGGGGSGGGGSEVHLVESGGGVVRPGGSLRLSCAASGFTFGDYGMSWVRQAPGKGLEWVSGINWNGGRTGYADSVKGRFTISRDNAKNSLYLQMNSLRAEDTALYYCARARGSGSYFGYMDVWGKGTTVTVSS
notes: On mRNA-electroporated T cells as CAR; also called anti-CD123-C5
B6: anti-CD123 scFv-C13 (scFv)
scFv: DVVMTQTPLSLPVTLGQPASISCRSSQGLVFSDGVTYLNWFQQRPGQSPRRLIYKVSNRDSGVPDRFSGSGSGTDFTLKISRVEAEDVGIYYCMQGTHWPHTFGQGTKLEIKGGGGSGGGGSGGGGSEVQLVESGGGLVKPGGSLRLSCAASGFTFSSYSMNWVRQAPGKGLEWVAFISHDASKKFYADSVKGRFTLSRDNSKNTLYLEMNSLGAEDTALYYCGRDRNWGFSDFWGQGTLVTVSS
notes: as for B2
B7: anti-CD123 scFv-C2 (scFv)
scFv: QSVVTQPPSVSAAPGQKVTISCSGSSSNIGNNYVSWYQQFPGTAPKLLIYDNNKRPSGIPDRFSGSKSGTSGTLGITGLQTGDEADYYCVTWDTSLSAGVFGGGTKLTVLGGGGSGGGGSGGGGSQITLKESGGGLVKPGGSLRLSCAASGFTFSNAWMSWVRQAPGKGLEWVGRIKSKTDGGTTDYAAPVKGRFTISRDDSKNTLYLQMNSLKTEDTAVYYCTTDPHGYYYGMDVWGQGTTVTVSS
notes: as for B2
B8: anti-CD123 scFv-C4 (scFv)
scFv: QSALTQPPSASGTPGQRVTISCSGSSSNIGSNYVNWYQQLPGTAPKLLIYRNNQRPSGVPDRFSGSKSGTSASLAISGLRSEDEADYYCAAWDDSLSGHGVFGTGTELTVLGGGGSGGGGSGGGGSQVQLVQSGPEVKKPGASVKVSCKASGYDFIRYYMNWVRQAPGQGPEWMGAIDPSDGDTTYGQKFQGRVTLTRDTFTSTVYMELSSLRSEDTAVYYCARDWELTNSYGLDVWGQGTTVTVSS
notes: as for B2
B9: anti-CD123 scFv-C10 (scFv)
scFv: SYELTQPPSVSVAPGKTARITCGGNNIGSKSVHWYQQKPGQAPVLVVYDDSDRPSGIPERFSGSNSGNTATLTISRVEAGDEADYYCQVWDSSSDHWVFGGGTKLTVLGGGGSGGGGSGGGGSQVQLVQSGAEVKKPGSSVKVSCKASGGTFSSYAISWVRQAPGQGLEWMGGIIPIFGTANYAQKFQGRVTITADESTSTAYMELSSLRSEDTAVYYCAREKWGYYGDYYYGMDVWGQGTTVTVSS
notes: as for B2
B10: anti-CD123 scFv-C11 (scFv)
scFv: QSVVTQPPSASGTPGQRVTISCSGSSSNIGSNYVYWYQQLPGTAPKLLIYRNNQRPSGVPDRFSGSKSGTSASLAISGLRSEDEADYYCAAWDDSLSGYVFGTGTKLTVLGGGGSGGGGSGGGGSEVQLVESGGGLVQPGRSLRLSCTASGFTFGDYAMSWVRQAPGKGLEWVGFIRSKAYGGTTEYAASVKGRFTISRDDSKSIAYLQMNSLKTEDTAVYYCTRDIGYYGSGSYSPFDYWGQGTLVTVSS
notes: On mRNA-electroporated T cells as CAR; also called anti-CD123-C11
B11: anti-CD123 scFv-C14 (scFv)
scFv: DIRMTQSPSSLSASVGDRVTITCQASQDITNYLNWYHQKPGKAPKLLIYDASNLETGVPSRFSGGGSGTDFTFTISSLQSEDIGTYYCQQYDDLPLTFGGGTKVEIKGGGGSGGGGSGGGGSQVQLQESGPGLVKPSETLSLTCTVSGGSISSSSHYWGWIRQPPGKGLEWIGSIYYSGSTYYNPSLKSRVTISVDTSKNQFSLKLSSVTAADTAVYYCARRVWVWPTYGMDVWGQGTTVTVSS
notes: as for B2
B12: anti-CD123 scFv-C16 (scFv)
scFv: QSVVTQPPSASGTPGQRVTISCSGSSSNIEGNTVSWYQQFPGAAPKLLIYSNSYRASGVPDRFSGSKSGTSASLAISELQSEDEADYYCSAWDDSLNGPVFGGGTELTVLGGGGSGGGGSGGGGSQVQLQESGGGLVQPGGSLRLSCAASGFTFSSYSMNWVRQAPGKGLEWVSYISSSSSTIYYADSVKGRFTISRDNAKNSLYLQMNSLRAEDTAVYYCARDIYGDWDYYYYGMDVWGQGTTVTVSS
notes: as for B2
B13: anti-CD123 scFv-C3 (scFv)
scFv: AIQMTQSPSSLSASVGDRVTITCRASQGIGTYLAWFQQKPGKAPKSLIYAASNLQSGVPSKFSGSGSGTDFTLTISNLQPEDFATYYCQQYKGYPLTFGGGTKLEIKGGGGSGGGGSGGGGSQVQLVQSGAEVKKPGSSVKVSCKASGGTFSSYAISWVRQAPGQGLEWMGGIIPIFGTANYAQKFQGRVTITADESTSTAYMELSSLRSEDTAVYYCARDSGWFGPRYYFDYWGQGTLVTVSS
notes: as for B2
B14: huVH5huVL3 (antibody, human IgG1, kappa, V domains shown)
VH: QVQLQESGPGLVKPSETLSLTCTVSGFSISDYGVHWIRQPPGKGLEWIGVIWAGGGTNYNPSLKSRVTISVDTSKNQVSLKLSSVTAADTAVYYCARDKGYSYYYSMDYWGQGTTVTVSS
VL: DIQLTQSPSSLSASVGDRVTITCRASESVEYYVTSLMQWYQQKPGKAPKLLIFAASNVESGVPSRFSGSGSGTDFTLTISSLQPEDFATYYCQQSRKVPYTFGGGTKLEIKR

In the first test the target is T1, CD123-Fc recombinant protein (human, UniProt P26951 19-305).
T1 construct: construct not described; not shown: Fc part
T1 sequence (looked up): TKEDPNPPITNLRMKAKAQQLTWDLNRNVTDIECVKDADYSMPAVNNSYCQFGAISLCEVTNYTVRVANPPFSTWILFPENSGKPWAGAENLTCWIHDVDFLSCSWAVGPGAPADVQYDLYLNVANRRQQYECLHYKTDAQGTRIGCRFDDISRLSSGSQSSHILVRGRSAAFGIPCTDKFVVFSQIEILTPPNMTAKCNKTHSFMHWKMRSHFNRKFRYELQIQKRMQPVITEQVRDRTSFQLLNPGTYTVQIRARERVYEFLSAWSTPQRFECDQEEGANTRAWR
Kind of test: flow cytometry of T cells electroporated with CAR mRNA, stained with CD123-Fc + PE-anti-hIgG-Fc; Mock 1.68. On the procedure:
The CD123 CAR mRNAs obtained in Example 35 above were each introduced into T cells by electroporation according to the following procedures: T cells were collected, washed with the Opti-MEM medium, and resuspended at 1×10e⁷/mL with the Opti-MEM medium; 10 μg of RNA and 100 μL of T cells were aliquoted, mixed well, and electroporated under the following parameters (BTX machine): 500 V, 0.7 ms; the cells were then transferred to a pre-warmed medium and cultured at 37° C. The binding of CD123 CART cells to the CD123-Fc recombinant protein was detected by FACS staining. […] Empty vector (Mock) was a control T cell without CAR molecule. A549 tumor cells were electroporated with different amounts of CD123 mRNA. The electroporation procedure was the same as described above, and only the parameters were changed, with the parameters 300 V, 0.5 ms used. CD123 expression in A549 tumor cells was detected by FACS staining of isotype or anti-CD123 antibodies and A549 cells electroporated with different amounts of CD123 mRNA. […] The cytotoxicity of CD123 CART cells against tumor cells was detected in an in vitro cytotoxicity assay. Tumor cells expressing EGFP or EGFP-A549 cells electroporated with different amounts of tumor antigen were seeded at 3000 cells/100 μL/well into a flat-bottom 96-well plate; CART cells were diluted to a proper concentration and seeded to the 100 μL/well tumor cells according to different E/T ratios (e.g., 10:1, 3:1, or 1:1), and the co-culture plate was placed into the IncuCyte S3 machine and scanning parameters were set. After scanning for 3 days, the total green object integrated intensity (GCU×μm²/well) was analyzed to calculate the killing efficiency.
A general note: In flow cytometry, cells or beads pass a laser one at a time.
For the molecule B1, the “percent of cells in the CD123-Fc positive gate” value (“percent of cells” below) is 53.6%.

In the case of B2, the “percent of cells” value worked out at 94%.

Regarding B3, the “percent of cells” value worked out at 97.3%.

With B4, the “percent of cells” value came out at 93.3%.

On to B5, for which the “percent of cells” value was found to be 79.3%.

For the molecule B6, the “percent of cells” value is 85.7%.

In the case of B7, the “percent of cells” value came to 81.7%.

For the molecule B8, the “percent of cells” value came to 93.8%.

B9: the “percent of cells” value came to 32.3%.

For B10, the “percent of cells” value came out at 38%.

B11: the “percent of cells” value turned out to be 85.4%.

For the molecule B12, the “percent of cells” value came to 94.2%.

As to B13, the “percent of cells” value was found to be 84.7%.

For the next test, the target named is T2, CD28 (detection antigen of the BLI assay) (human, UniProt P10747 19-152, limits assumed).
T2 construct: also called the antigen
The test is described as follows: BLI (GATOR); antibody loaded at 30 nM, antigen 300-37.5 nM. The text has this: The affinity kinetics of the humanized antibodies were detected using biolayer interferometry (BLI). The experimental procedures were as follows: [0533] 1. GATOR instrument was run, and the Kinetics experimental mode was selected. [0534] 2. The analysis program was run according to Table 5
With B14, the Kd (commonly a measure of binding affinity in units of concentration) stood at 11.5 nM; the koff (as a rule, the first-order rate constant of dissociation) amounted to 0.00101 s⁻¹; the kon – broadly, the rate constant with which the complex forms – came to 87800 M⁻¹ s⁻¹.
